Results published in patent publication US7067646 (Dana-Farber, dated 2006).

Assays:
[1] = target: endogenous RB family proteins; experiment: cell-based or functional assay
[2] = target: T1, MTAF600 (microtubule associated factor 600) (human, UniProt Q5T4S7 1-5183); experiment: anti-FLAG immunoprecipitation of f:RB from HeLa nuclear extract, SDS-PAGE
T1 construct: Native endogenous protein of HeLa nuclear extracts (5183 residues); also called MT-associated factor (MTAF) 600; 600 kDa subunit

[3] = target: T1, MTAF600 (microtubule associated factor …); experiment: MTAF600 immobilised on matrix incubated with GST-RB, immunoblot
[4] = target: T1, MTAF600 (microtubule associated factor …); experiment: co-immunoprecipitation from HeLa extract, immunoblot
[5] = target: T1, MTAF600 (microtubule associated factor …); experiment: GST pull-down from HeLa nuclear extract, immunoblot

T1 sequence (Q5T4S7 other isoform, or with tags, fused parts or gaps limits assumed): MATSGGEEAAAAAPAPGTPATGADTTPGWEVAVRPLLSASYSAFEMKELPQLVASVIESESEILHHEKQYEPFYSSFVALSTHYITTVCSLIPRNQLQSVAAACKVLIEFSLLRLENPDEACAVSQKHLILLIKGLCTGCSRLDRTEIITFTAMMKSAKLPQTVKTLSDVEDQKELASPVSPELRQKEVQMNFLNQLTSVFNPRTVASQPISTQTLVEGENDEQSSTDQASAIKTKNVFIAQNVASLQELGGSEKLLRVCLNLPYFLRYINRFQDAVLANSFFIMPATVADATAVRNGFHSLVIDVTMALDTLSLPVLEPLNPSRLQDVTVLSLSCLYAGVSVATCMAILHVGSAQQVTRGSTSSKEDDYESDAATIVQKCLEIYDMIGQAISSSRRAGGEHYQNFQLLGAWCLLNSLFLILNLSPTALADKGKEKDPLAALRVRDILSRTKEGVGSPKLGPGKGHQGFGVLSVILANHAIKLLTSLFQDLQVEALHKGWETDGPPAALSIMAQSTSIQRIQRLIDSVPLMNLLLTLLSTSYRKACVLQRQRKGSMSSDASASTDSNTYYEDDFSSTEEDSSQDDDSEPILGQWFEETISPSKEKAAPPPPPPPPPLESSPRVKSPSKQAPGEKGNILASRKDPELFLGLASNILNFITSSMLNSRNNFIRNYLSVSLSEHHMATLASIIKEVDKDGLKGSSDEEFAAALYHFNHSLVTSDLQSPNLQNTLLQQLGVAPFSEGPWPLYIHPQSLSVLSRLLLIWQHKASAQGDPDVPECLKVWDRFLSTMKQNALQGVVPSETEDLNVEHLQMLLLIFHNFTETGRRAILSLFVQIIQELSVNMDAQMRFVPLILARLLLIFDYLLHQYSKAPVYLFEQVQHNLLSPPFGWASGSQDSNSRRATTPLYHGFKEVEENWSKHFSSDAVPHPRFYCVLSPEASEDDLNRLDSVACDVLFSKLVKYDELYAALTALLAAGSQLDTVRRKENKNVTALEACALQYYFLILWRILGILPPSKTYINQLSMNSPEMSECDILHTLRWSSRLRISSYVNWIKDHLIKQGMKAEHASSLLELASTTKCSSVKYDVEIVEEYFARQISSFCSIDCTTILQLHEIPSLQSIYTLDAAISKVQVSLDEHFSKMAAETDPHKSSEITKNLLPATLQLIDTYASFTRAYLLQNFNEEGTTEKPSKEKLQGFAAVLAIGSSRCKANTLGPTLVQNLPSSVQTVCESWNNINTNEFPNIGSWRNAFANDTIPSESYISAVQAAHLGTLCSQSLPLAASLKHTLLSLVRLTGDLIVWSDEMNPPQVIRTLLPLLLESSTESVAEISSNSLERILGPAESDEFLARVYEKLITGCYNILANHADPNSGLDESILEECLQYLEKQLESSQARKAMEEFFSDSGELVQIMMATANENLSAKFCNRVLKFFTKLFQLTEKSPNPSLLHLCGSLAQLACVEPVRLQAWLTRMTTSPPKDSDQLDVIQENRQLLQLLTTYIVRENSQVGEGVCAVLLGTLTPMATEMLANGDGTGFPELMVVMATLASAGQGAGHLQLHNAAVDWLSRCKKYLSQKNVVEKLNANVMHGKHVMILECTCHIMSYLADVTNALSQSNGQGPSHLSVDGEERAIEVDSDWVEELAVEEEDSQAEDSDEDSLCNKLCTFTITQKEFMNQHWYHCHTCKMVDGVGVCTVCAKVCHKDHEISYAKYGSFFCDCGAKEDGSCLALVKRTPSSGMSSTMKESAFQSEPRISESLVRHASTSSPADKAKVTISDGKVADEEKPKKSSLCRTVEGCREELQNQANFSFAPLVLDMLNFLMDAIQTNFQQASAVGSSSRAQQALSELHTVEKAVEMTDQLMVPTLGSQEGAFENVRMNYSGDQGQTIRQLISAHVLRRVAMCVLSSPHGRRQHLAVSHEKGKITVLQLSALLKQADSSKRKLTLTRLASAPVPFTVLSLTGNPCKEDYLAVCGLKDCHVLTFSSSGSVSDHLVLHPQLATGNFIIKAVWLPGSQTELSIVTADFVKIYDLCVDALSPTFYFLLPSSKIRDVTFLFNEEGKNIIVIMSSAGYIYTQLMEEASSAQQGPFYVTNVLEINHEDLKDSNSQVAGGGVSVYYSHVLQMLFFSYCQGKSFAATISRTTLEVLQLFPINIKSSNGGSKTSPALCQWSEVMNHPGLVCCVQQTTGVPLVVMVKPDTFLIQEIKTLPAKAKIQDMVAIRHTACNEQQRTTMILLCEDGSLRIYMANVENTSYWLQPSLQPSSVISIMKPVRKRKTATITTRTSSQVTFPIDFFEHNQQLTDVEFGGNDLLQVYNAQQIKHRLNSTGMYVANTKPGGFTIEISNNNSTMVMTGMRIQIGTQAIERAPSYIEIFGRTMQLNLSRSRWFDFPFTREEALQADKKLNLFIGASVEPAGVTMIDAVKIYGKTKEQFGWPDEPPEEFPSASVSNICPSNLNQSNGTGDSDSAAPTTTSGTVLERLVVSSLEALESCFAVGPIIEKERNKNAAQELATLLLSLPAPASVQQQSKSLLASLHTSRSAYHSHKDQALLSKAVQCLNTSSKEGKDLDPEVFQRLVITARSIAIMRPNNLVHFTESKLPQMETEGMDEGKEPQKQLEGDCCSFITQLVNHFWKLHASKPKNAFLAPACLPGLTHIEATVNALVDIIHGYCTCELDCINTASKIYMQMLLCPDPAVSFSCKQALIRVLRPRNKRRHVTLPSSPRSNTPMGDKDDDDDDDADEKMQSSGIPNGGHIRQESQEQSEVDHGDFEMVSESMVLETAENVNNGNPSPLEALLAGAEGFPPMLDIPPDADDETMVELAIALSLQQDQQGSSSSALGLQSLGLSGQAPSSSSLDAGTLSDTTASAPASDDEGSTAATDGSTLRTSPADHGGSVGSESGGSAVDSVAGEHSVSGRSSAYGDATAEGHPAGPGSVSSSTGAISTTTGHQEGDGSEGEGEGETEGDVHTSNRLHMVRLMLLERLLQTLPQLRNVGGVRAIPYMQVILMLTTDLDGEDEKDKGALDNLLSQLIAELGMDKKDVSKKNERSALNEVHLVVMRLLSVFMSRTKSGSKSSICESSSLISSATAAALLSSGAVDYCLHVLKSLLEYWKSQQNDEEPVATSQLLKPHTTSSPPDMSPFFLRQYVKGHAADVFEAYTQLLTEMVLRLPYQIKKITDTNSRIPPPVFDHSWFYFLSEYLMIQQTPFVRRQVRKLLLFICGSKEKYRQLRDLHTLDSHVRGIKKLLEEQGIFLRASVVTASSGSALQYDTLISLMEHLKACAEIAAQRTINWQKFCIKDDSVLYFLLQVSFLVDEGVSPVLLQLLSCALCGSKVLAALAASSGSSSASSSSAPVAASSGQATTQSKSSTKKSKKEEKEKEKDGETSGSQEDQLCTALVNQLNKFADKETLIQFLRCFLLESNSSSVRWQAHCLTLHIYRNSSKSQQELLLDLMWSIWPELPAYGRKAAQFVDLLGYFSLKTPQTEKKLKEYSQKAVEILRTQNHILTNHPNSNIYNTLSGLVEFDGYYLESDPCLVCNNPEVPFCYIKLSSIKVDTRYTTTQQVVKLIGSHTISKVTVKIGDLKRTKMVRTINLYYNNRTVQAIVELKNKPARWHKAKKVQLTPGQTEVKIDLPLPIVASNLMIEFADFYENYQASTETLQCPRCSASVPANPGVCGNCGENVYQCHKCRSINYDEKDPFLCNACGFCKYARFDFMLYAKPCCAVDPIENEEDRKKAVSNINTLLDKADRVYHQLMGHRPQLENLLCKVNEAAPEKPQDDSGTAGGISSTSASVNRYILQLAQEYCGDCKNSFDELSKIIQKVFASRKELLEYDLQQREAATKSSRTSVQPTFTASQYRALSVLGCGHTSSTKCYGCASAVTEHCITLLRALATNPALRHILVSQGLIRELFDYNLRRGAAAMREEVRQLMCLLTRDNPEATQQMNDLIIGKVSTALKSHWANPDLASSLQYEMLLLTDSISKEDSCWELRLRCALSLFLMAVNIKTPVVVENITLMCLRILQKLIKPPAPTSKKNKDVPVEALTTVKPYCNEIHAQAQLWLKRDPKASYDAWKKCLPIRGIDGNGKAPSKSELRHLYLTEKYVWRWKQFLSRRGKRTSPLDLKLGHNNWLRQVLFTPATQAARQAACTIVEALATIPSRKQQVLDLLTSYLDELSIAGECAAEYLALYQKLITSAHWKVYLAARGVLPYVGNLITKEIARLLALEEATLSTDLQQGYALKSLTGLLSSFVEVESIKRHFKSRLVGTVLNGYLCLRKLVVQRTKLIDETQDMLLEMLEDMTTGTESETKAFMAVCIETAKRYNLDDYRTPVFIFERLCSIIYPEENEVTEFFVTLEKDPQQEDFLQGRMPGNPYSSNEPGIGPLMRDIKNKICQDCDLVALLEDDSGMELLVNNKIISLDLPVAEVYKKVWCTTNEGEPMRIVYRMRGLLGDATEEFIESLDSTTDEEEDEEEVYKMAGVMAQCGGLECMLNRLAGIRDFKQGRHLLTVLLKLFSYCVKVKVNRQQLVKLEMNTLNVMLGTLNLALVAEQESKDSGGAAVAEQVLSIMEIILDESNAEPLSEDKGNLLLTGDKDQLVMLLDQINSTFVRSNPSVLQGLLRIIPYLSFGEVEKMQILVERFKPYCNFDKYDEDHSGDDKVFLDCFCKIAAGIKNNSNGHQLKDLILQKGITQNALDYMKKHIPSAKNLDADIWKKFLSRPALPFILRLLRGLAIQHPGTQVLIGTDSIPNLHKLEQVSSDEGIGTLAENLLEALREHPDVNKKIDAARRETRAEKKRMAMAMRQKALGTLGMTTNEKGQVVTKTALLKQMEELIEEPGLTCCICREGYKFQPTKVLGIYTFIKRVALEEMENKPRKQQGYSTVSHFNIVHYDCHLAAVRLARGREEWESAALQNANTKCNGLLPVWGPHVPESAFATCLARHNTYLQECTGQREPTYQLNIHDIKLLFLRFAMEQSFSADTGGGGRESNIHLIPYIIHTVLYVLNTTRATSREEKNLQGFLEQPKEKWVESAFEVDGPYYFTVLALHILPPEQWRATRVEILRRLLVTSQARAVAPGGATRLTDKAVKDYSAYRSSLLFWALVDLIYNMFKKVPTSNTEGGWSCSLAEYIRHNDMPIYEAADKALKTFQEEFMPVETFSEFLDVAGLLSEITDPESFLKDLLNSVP

B1: FLAG-tagged MTAF600 (3910-4851), Q5T4S7 3910-4851 (protein)
chain: FDYNLRRGAAAMREEVRQLMCLLTRDNPEATQQMNDLIIGKVSTALKSHWANPDLASSLQYEMLLLTDSISKEDSCWELRLRCALSLFLMAVNIKTPVVVENITLMCLRILQKLIKPPAPTSKKNKDVPVEALTTVKPYCNEIHAQAQLWLKRDPKASYDAWKKCLPIRGIDGNGKAPSKSELRHLYLTEKYVWRWKQFLSRRGKRTSPLDLKLGHNNWLRQVLFTPATQAARQAACTIVEALATIPSRKQQVLDLLTSYLDELSIAGECAAEYLALYQKLITSAHWKVYLAARGVLPYVGNLITKEIARLLALEEATLSTDLQQGYALKSLTGLLSSFVEVESIKRHFKSRLVGTVLNGYLCLRKLVVQRTKLIDETQDMLLEMLEDMTTGTESETKAFMAVCIETAKRYNLDDYRTPVFIFERLCSIIYPEENEVTEFFVTLEKDPQQEDFLQGRMPGNPYSSNEPGIGPLMRDIKNKICQDCDLVALLEDDSGMELLVNNKIISLDLPVAEVYKKVWCTTNEGEPMRIVYRMRGLLGDATEEFIESLDSTTDEEEDEEEVYKMAGVMAQCGGLECMLNRLAGIRDFKQGRHLLTVLLKLFSYCVKVKVNRQQLVKLEMNTLNVMLGTLNLALVAEQESKDSGGAAVAEQVLSIMEIILDESNAEPLSEDKGNLLLTGDKDQLVMLLDQINSTFVRSNPSVLQGLLRIIPYLSFGEVEKMQILVERFKPYCNFDKYDEDHSGDDKVFLDCFCKIAAGIKNNSNGHQLKDLILQKGITQNALDYMKKHIPSAKNLDADIWKKFLSRPALPFILRLLRGLAIQHPGTQVLIGTDSIPNLHKLEQVSSDEGIGTLAENLLEALREHPDVNKKIDAARRETRAEKKRMAMAMRQKALGTLGMTTNEKGQVVTKTALLKQMEELIEEPGLTCCICREGYKFQPTK
cells in S-phase at 24 hr after replating (FACS, stably transfected U2OS cells; control cells 64%) [1]: 37%

B2: FLAG-epitope-tagged RB (tag at the N-terminus) (other, UniProt P06400 1-928, looked up, not shown: small tags and cut ends)
chain: MPPKTPRKTAATAAAAAAEPPAPPPPPPPEEDPEQDSGPEDLPLVRLEFEETEEPDFTALCQKLKIPDHVRERAWLTWEKVSSVDGVLGGYIQKKKELWGICIFIAAVDLDEMSFTFTELQKNIEISVHKFFNLLKEIDTSTKVDNAMSRLLKKYDVLFALFSKLERTCELIYLTQPSSSISTEINSALVLKVSWITFLLAKGEVLQMEDDLVISFQLMLCVLDYFIKLSPPMLLKEPYKTAVIPINGSPRTPRRGQNRSARIAKQLENDTRIIEVLCKEHECNIDEVKNVYFKNFIPFMNSLGLVTSNGLPEVENLSKRYEEIYLKNKDLDARLFLDHDKTLQTDSIDSFETQRTPRKSNLDEEVNVIPPHTPVRTVMNTIQQLMMILNSASDQPSENLISYFNNCTVNPKESILKRVKDIGYIFKEKFAKAVGQGCVEIGSQRYKLGVRLYYRVMESMLKSEEERLSIQNFSKLLNDNIFHMSLLACALEVVMATYSRSTSQNLDSGTDLSFPWILNVLNLKAFDFYKVIESFIKAEGNLTREMIKHLERCEHRIMESLAWLSDSPLFDLIKQSKDREGPTDHLESACPLNLPLQNNHTAADMYLSPVRSPKKKGSTTRVNSTANAETQATSAFQTQKPLKSTSLSLFYKKVYRLAYLRLNTLCERLLSEHPELEHIIWTLFQHTLQNEYELMRDRHLDQIMMCSMYGICKVKNIDLKFKIIVTAYKDLPHAVQETFKRVLIKEEEYDSIIVFYNSVFMQRLKTNILQYASTRPPTLSPIPHIPRSPYKFPSSPLRIPGGNIYISPLKSPYKISEGLPTPTKMTPRSRILVSIGESFGTSEKFQKINQMVCNSDRVLKRSAEGSNPPKPLKKLRFDIEGSDEADGSKHLPGESKFQQKLAEMTSTRTRMQKQKMNDSMDTSNKEEK
notes: also called f:RB; f: RB
binding result [2]: binds

B3: GST-RB (379-928) (other, UniProt P06400 379-928, looked up)
chain: MNTIQQLMMILNSASDQPSENLISYFNNCTVNPKESILKRVKDIGYIFKEKFAKAVGQGCVEIGSQRYKLGVRLYYRVMESMLKSEEERLSIQNFSKLLNDNIFHMSLLACALEVVMATYSRSTSQNLDSGTDLSFPWILNVLNLKAFDFYKVIESFIKAEGNLTREMIKHLERCEHRIMESLAWLSDSPLFDLIKQSKDREGPTDHLESACPLNLPLQNNHTAADMYLSPVRSPKKKGSTTRVNSTANAETQATSAFQTQKPLKSTSLSLFYKKVYRLAYLRLNTLCERLLSEHPELEHIIWTLFQHTLQNEYELMRDRHLDQIMMCSMYGICKVKNIDLKFKIIVTAYKDLPHAVQETFKRVLIKEEEYDSIIVFYNSVFMQRLKTNILQYASTRPPTLSPIPHIPRSPYKFPSSPLRIPGGNIYISPLKSPYKISEGLPTPTKMTPRSRILVSIGESFGTSEKFQKINQMVCNSDRVLKRSAEGSNPPKPLKKLRFDIEGSDEADGSKHLPGESKFQQKLAEMTSTRTRMQKQKMNDSMDTSNKEEK
notes: Expressed in E. coli; also called large pocket domain of RB as GST fusion; not shown: glutathione S-transferase (GST) fusion partner of vector pGEX6P-1
binding result [3]: binds

B4: hypophosphorylated RB (other, human, UniProt P06400 2-928, looked up)
chain: PPKTPRKTAATAAAAAAEPPAPPPPPPPEEDPEQDSGPEDLPLVRLEFEETEEPDFTALCQKLKIPDHVRERAWLTWEKVSSVDGVLGGYIQKKKELWGICIFIAAVDLDEMSFTFTELQKNIEISVHKFFNLLKEIDTSTKVDNAMSRLLKKYDVLFALFSKLERTCELIYLTQPSSSISTEINSALVLKVSWITFLLAKGEVLQMEDDLVISFQLMLCVLDYFIKLSPPMLLKEPYKTAVIPINGSPRTPRRGQNRSARIAKQLENDTRIIEVLCKEHECNIDEVKNVYFKNFIPFMNSLGLVTSNGLPEVENLSKRYEEIYLKNKDLDARLFLDHDKTLQTDSIDSFETQRTPRKSNLDEEVNVIPPHTPVRTVMNTIQQLMMILNSASDQPSENLISYFNNCTVNPKESILKRVKDIGYIFKEKFAKAVGQGCVEIGSQRYKLGVRLYYRVMESMLKSEEERLSIQNFSKLLNDNIFHMSLLACALEVVMATYSRSTSQNLDSGTDLSFPWILNVLNLKAFDFYKVIESFIKAEGNLTREMIKHLERCEHRIMESLAWLSDSPLFDLIKQSKDREGPTDHLESACPLNLPLQNNHTAADMYLSPVRSPKKKGSTTRVNSTANAETQATSAFQTQKPLKSTSLSLFYKKVYRLAYLRLNTLCERLLSEHPELEHIIWTLFQHTLQNEYELMRDRHLDQIMMCSMYGICKVKNIDLKFKIIVTAYKDLPHAVQETFKRVLIKEEEYDSIIVFYNSVFMQRLKTNILQYASTRPPTLSPIPHIPRSPYKFPSSPLRIPGGNIYISPLKSPYKISEGLPTPTKMTPRSRILVSIGESFGTSEKFQKINQMVCNSDRVLKRSAEGSNPPKPLKKLRFDIEGSDEADGSKHLPGESKFQQKLAEMTSTRTRMQKQKMNDSMDTSNKEEK
modifications: hypophosphorylated (sites not given)
notes: also called RB (hypo-phosphorylated)
binding result [4]: binds

B5: hyperphosphorylated RB (other, human, UniProt P06400 2-928, looked up)
chain: PPKTPRKTAATAAAAAAEPPAPPPPPPPEEDPEQDSGPEDLPLVRLEFEETEEPDFTALCQKLKIPDHVRERAWLTWEKVSSVDGVLGGYIQKKKELWGICIFIAAVDLDEMSFTFTELQKNIEISVHKFFNLLKEIDTSTKVDNAMSRLLKKYDVLFALFSKLERTCELIYLTQPSSSISTEINSALVLKVSWITFLLAKGEVLQMEDDLVISFQLMLCVLDYFIKLSPPMLLKEPYKTAVIPINGSPRTPRRGQNRSARIAKQLENDTRIIEVLCKEHECNIDEVKNVYFKNFIPFMNSLGLVTSNGLPEVENLSKRYEEIYLKNKDLDARLFLDHDKTLQTDSIDSFETQRTPRKSNLDEEVNVIPPHTPVRTVMNTIQQLMMILNSASDQPSENLISYFNNCTVNPKESILKRVKDIGYIFKEKFAKAVGQGCVEIGSQRYKLGVRLYYRVMESMLKSEEERLSIQNFSKLLNDNIFHMSLLACALEVVMATYSRSTSQNLDSGTDLSFPWILNVLNLKAFDFYKVIESFIKAEGNLTREMIKHLERCEHRIMESLAWLSDSPLFDLIKQSKDREGPTDHLESACPLNLPLQNNHTAADMYLSPVRSPKKKGSTTRVNSTANAETQATSAFQTQKPLKSTSLSLFYKKVYRLAYLRLNTLCERLLSEHPELEHIIWTLFQHTLQNEYELMRDRHLDQIMMCSMYGICKVKNIDLKFKIIVTAYKDLPHAVQETFKRVLIKEEEYDSIIVFYNSVFMQRLKTNILQYASTRPPTLSPIPHIPRSPYKFPSSPLRIPGGNIYISPLKSPYKISEGLPTPTKMTPRSRILVSIGESFGTSEKFQKINQMVCNSDRVLKRSAEGSNPPKPLKKLRFDIEGSDEADGSKHLPGESKFQQKLAEMTSTRTRMQKQKMNDSMDTSNKEEK
modifications: hyperphosphorylated (sites not given)
notes: also called P-RB
binding result [4]: binds

B6: GST-RB (379-772) (other, UniProt P06400 379-772, looked up)
chain: MNTIQQLMMILNSASDQPSENLISYFNNCTVNPKESILKRVKDIGYIFKEKFAKAVGQGCVEIGSQRYKLGVRLYYRVMESMLKSEEERLSIQNFSKLLNDNIFHMSLLACALEVVMATYSRSTSQNLDSGTDLSFPWILNVLNLKAFDFYKVIESFIKAEGNLTREMIKHLERCEHRIMESLAWLSDSPLFDLIKQSKDREGPTDHLESACPLNLPLQNNHTAADMYLSPVRSPKKKGSTTRVNSTANAETQATSAFQTQKPLKSTSLSLFYKKVYRLAYLRLNTLCERLLSEHPELEHIIWTLFQHTLQNEYELMRDRHLDQIMMCSMYGICKVKNIDLKFKIIVTAYKDLPHAVQETFKRVLIKEEEYDSIIVFYNSVFMQRLKTNILQYA
notes: Expressed in E. coli; not shown: glutathione S-transferase (GST) fusion partner of vector pGEX6P-1
binding result [5]: no binding

B7: GST-RB (646-928) (other, UniProt P06400 646-928, looked up)
chain: SLSLFYKKVYRLAYLRLNTLCERLLSEHPELEHIIWTLFQHTLQNEYELMRDRHLDQIMMCSMYGICKVKNIDLKFKIIVTAYKDLPHAVQETFKRVLIKEEEYDSIIVFYNSVFMQRLKTNILQYASTRPPTLSPIPHIPRSPYKFPSSPLRIPGGNIYISPLKSPYKISEGLPTPTKMTPRSRILVSIGESFGTSEKFQKINQMVCNSDRVLKRSAEGSNPPKPLKKLRFDIEGSDEADGSKHLPGESKFQQKLAEMTSTRTRMQKQKMNDSMDTSNKEEK
notes: as for B6
binding result [5]: no binding

B8: GST-RB (379-646) (other, UniProt P06400 379-646, looked up)
chain: MNTIQQLMMILNSASDQPSENLISYFNNCTVNPKESILKRVKDIGYIFKEKFAKAVGQGCVEIGSQRYKLGVRLYYRVMESMLKSEEERLSIQNFSKLLNDNIFHMSLLACALEVVMATYSRSTSQNLDSGTDLSFPWILNVLNLKAFDFYKVIESFIKAEGNLTREMIKHLERCEHRIMESLAWLSDSPLFDLIKQSKDREGPTDHLESACPLNLPLQNNHTAADMYLSPVRSPKKKGSTTRVNSTANAETQATSAFQTQKPLKSTS
notes: as for B6
binding result [5]: no binding
